{"source": "paper PMC12324679", "key": {"PuPuf4 (Pythium ultimum)": {"tested_on": "PuPuf4 (Pythium ultimum)", "test": "MST", "details": "MST: 50 mM Tris pH 7.5, 150 mM NaCl, 10 mM MgCl2, 0.05% Tween 20, 25 C; EMSA: Beyotime EMSA/Gel-Shift Binding Buffer, 50 ng RNA, 25 C 30 min, 1% agarose gel"}, "[1]": {"tested_on": "PuPuf4 R111A F147A K368A (Pythium ultimum)", "test": "MST", "details": "MST: 50 mM Tris pH 7.5, 150 mM NaCl, 10 mM MgCl2, 0.05% Tween 20, 25 C; EMSA: Beyotime EMSA/Gel-Shift Binding Buffer, 50 ng RNA, 25 C 30 min, 1% agarose gel"}}, "data": [{"sequence": "GCCCAGUGCUCUGAAUGUCAAAGUGAAGAGAUUCACCAAGCGGCGGGUAAACGCG [H68 rRNA]", "values": [{"measurement": "Kd", "setting": "PuPuf4 (Pythium ultimum)", "result": 240, "unit": "nM"}, {"measurement": "Kd", "setting": "[1]", "result": 620, "unit": "nM"}]}]}
